The record followed here is paper PMC2732195.

In this test the target is wild type presenilin 1 (PS1) (UniProt P49768). Kind of test: FRET or BRET. A general note: BRET reads energy transfer from a luciferase to a nearby fluorophore.

Substance “wild type human APP C99 (from UniProt P05067 672-770) (domain or fragment)” had an Alexa 430 donor lifetime (FRET) of 1230 ps; an Alexa 488 donor lifetime (FLIM), average per cell of 1890 ps; an Alexa 488 donor lifetime (FLIM), cell interior of 2090 ps; an Alexa 488 donor lifetime (FLIM), cell periphery of 1420 ps. In addition, the FRET strength normalized to WT APP (normalized to WT APP) was 100.
